Data on 41 sequences can be found in the nanobody polyreactivity screen of Harvey et al. (2022).

The nature of this series: yeast display, Sf9 membrane polyspecificity reagent, FACS + sequencing; frameworks hold sequencing errors. The gist of the method: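 Genes from sorted yeast were amplified by colony PCR, read by MiSeq 2 × 250 sequencing and filtered on CDR length. These cells carried a synthetic nanobody library in Saccharomyces cerevisiae BJ5465 and were sorted by FACS into low and high (top ~1%) gates on anti-HA and streptavidin fluorescence. Polyreactivity is labelled according to the gate of origin.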
For the sequence “QVQLVESGGGLVQAGGSLPLSCAASGSIFGGNDMGWYRQAPGKERELVAAITSSGGSTYYADSVKGRFTITRDNAKITVYCQMNRLKPEVTAVYYCNADYYGPYRDYGYWGQGTQVTVSS”, the “polyreactivity (PSR sort gate)” value was “low polyreactivity”.

Regarding “QVQLVESGGGLVQAGGSLPLSCAASGSIFYSNAMGWYRQAPGKERELVARISRSGGSTYYADSVKGRFTISRDNAKNTVYLQMNSLKPEDTAVYYCAKTFTRSWGLGGSWGQGTQVTVSS”, the “polyreactivity (PSR sort gate)” value is reported as “low polyreactivity”.

In the case of “QVQLVESGGGLVQAGGSLPLSCAAYGFTFWYYAMGWYRQAPGKERELVAAISTGGRTNYADSVKGRFTISRDNAKNTVYLQMNSLKPEDTAFYYCAADQSYFYLYRYRFDYWGQGTQVTVSS”, the “polyreactivity (PSR sort gate)” value is given as “high polyreactivity”.

Turning to “QVQLVESGGGLVQAGGSLPLSSAASGITFRLYALGWYRQAPGKERELVATITSLGGGTYYADSVKGRFTISRDNAKNTVYLQMHCLIPEDTAVYYCAADVSRPPAGFNYWGQGSQVTVSS”, the “polyreactivity (PSR sort gate)” value is on record as “high polyreactivity”.

In the case of “QVQLVESGGGLVQAGGSLPLTCAASGSIFAWNDMGWYRQAPGKERELVAAIRESGTGTYADSVKGRFTISRDNAKNNVYLQMKSLKPEDTAVYYGVADEIQFFIYRMEYWGQGTQVTVSS”, the “polyreactivity (PSR sort gate)” value is “low polyreactivity”.

Turning to “QVQLVESGGGLVQAGGSLRCSWAASGFIFTPYAMGWYRQAPGTEREFVATITWSGGSTNYADSVKGRFTISRDNAKNTVYLPMNSLKPDDTAVYYCNADTWSPNDYWGQGTQVTVSS”, the “polyreactivity (PSR sort gate)” value is “low polyreactivity”.

For the sequence “QVQLVESGGGLVQAGGSLRFICAASGFLFRAYTMGWYRQAPGKERELVAAITSSGGRTYYADSVKGRFSISRDNAKNTVFLQMNSLKPEDTAVYYCATVYAKWKQFDSWGQGTQVNVSS”, the “polyreactivity (PSR sort gate)” value was “high polyreactivity”.

On to “QVQLVESGGGLVQAGGSLRFICAASGRTFDWYAMGWYRPAPGKERELVAGNSWSGGSTYYADSVKGRFTISRDNAKNTVYLQMNSLKPEDTAVYYCAAEYPFEIGYVYYYIDYDYWGQGTQVTVSS”, for which the “polyreactivity (PSR sort gate)” value is recorded as “low polyreactivity”.

Consider “QVQLVESGGGLVQAGGSLRFSCAACGSIFEFYALGWSSQAPGKERELVAAITWDDGSTYYADSVKGRFTISRDNATNTVYLQMNSLTPEDTAVYYCAADTYITSDLYVYAYYYWGQGTQVTVSS”, for which the “polyreactivity (PSR sort gate)” value is “low polyreactivity”.

As to “QVQLVESGGGLVQAGGSLRFSCAASGFIFSAYAMGWYRPAPGKERELVAAITWNGGSTYYADSVKGRFTISRDNAKNTVYLQMNSLKPEDTAVYYCNAVIKQHYIKYSYWGQGTQVTVSS”, the “polyreactivity (PSR sort gate)” value is “high polyreactivity”.

In the case of “QVQLVESGGGLVQAGGSLRFSCAASGINFYFNAMGWYRQAPGKERELVAVITSGGSTNYADSVKGRFTISRDNAKNTVYLQMNSLKPEDTAVYYCATDKSYSSWSAQYVYWGQGTQVTVSS”, the “polyreactivity (PSR sort gate)” value is “low polyreactivity”.

On to “QVQLVESGGGLVQAGGSLRFSCAASGITIRFYAMGWYRQAPGKERELVAAITRGGSTTYAHSVKGRFTISRDNAKNTVYLQMNSLKPEDTEVSYCNAQYQSGYYTSYPDRFDTWGQGTQVTVSS”, for which the “polyreactivity (PSR sort gate)” value was “low polyreactivity”.

Take “QVQLVESGGGLVQAGGSLRFSCAASGNTFYQYAMGWYRQAPGKERELVAAIVWSGGTTYYADSVKGRFTISRDNAKNTVYLQMTSLKPEDTAVYYCNADYDRGPYDYDSWGQGTQVTVSS”: the “polyreactivity (PSR sort gate)” value was “low polyreactivity”.

With “QVQLVESGGGLVQAGGSLRFSCAASGRIFGDYAMGWYRLAPGKERELVAAISWSDGSTYYADSVKGRFTISRDNAKNTVYLQMNSLKPEDTAVYYCAASYWDTEPGYREYDYWGQGTQVTVSS”, the “polyreactivity (PSR sort gate)” value is reported as “low polyreactivity”.

“QVQLVESGGGLVQAGGSLRFSCAASGRIFQYNAMGWYRQAPGKERELVASITSGVRTYYADSVKGRFTISRDNAKNTVYLQMNSLKPEDTAVYYCNAYSGGQYDYCGQGTQVTVSS”: the “polyreactivity (PSR sort gate)” value is “high polyreactivity”.

Take “QVQLVESGGGLVQAGGSLRFSCAASGRTFFGYAMGWYRQAPGKERELVAAISRGGTTHYADSVKGRFTISRDNAKNTVYLQMNSLKPEDTAVYYCAADGYPYIWSGIEYDYWGQGTQVTVSS”: the “polyreactivity (PSR sort gate)” value is given as “high polyreactivity”.

As for “QVQLVESGGGLVQAGGSLRFSCAASGRTFGINAMGWYRQAPGKERELVAVITFGDGGTYYADSVKGRFTISRDNAKNTVYLQMNSLNPEDTAVYYCSTDYQSTSVWGGHFVINPYDYWGQGTQVTVSS”, the “polyreactivity (PSR sort gate)” value is “low polyreactivity”.

As to “QVQLVESGGGLVQAGGSLRFSCAASGRTFTYYAMGWYRQAPGKERELVASIRKSGASTYYADSVKGRFTISRDKAKNTVYLQMNSLKPEETAVYYCNTAKGHGRYEYWGQGSQVTVSS”, the “polyreactivity (PSR sort gate)” value is “high polyreactivity”.

Turning to “QVQLVESGGGLVQAGGSLRFSCAASGRTFYRNVMGWYRQAPGKERELVAVITSGGSTNYADSVKGRFTISRDNAQNTVYLQMNSLKPEDTAVYYCNTALSSRSNKMYYWGQGTQVTVSS”, the “polyreactivity (PSR sort gate)” value is “high polyreactivity”.

In the case of “QVQLVESGGGLVQAGGSLRFSCAASGRTLVYNGMGWYRPAPGKERELVAAITTDGGDTYYADSVKGRFTISRDNAKNTVYLQMDSLKPEDTAVYYCAADYVALYYWYDYWGQGTQVTVSS”, the “polyreactivity (PSR sort gate)” value was “low polyreactivity”.

As to “QVQLVESGGGLVQAGGSLRFSCAASGSIFDRYAMGWYRQAPGKERELVAAITYSGGSTYYADSVKGRFTISRDNAKNTVYLQMNSLKPEDTAVYYCATETYPQGRYYQSYDYWGQGTQVTVSS”, the “polyreactivity (PSR sort gate)” value was “low polyreactivity”.

In the case of “QVQLVESGGGLVQAGGSLRFSCAASGSIFQPYAMGWSRQAPGKERAFVAAISRSGGITYYADSVKGRFTISRDNAKNTVYLQMNSLKPEDTAVYYCAADYILWKGSNSYYYAGYYYWGQGTQVTVSS”, the “polyreactivity (PSR sort gate)” value is listed as “low polyreactivity”.

“QVQLVESGGGLVQAGGSLRFSCAASGSIFSSYDMGWYRQAPGKERELVAAITRGGTTNYADSVKGRFTISRDNAKNTVYLQMNSLKPEDTAVYYCNVAYGLLGISPGGDYWGQGTQVTVSS”: the “polyreactivity (PSR sort gate)” value is “low polyreactivity”.

“QVQLVESGGGLVQAGGSLRFSCAASGSILYGYAIGWYRQAPGQETELVAAIRLTGGSTYYADSVKGRFTISRDNAKNTVYLQMNSLKPEDTAVYYCAAEYNLRNYWGDYWGQGTLVTVSS”: the “polyreactivity (PSR sort gate)” value is on record as “low polyreactivity”.

For the sequence “QVQLVESGGGLVQAGGSLRFSCAASGSISSQYGMGWYRQEPGKVRELVATIRDGGPTNYADSVKGRFTISRDNAKYTVYLQMNSLKPEDTAVYSCAALYWYYYTWPLYDYWGQGTQVTVSS”, the “polyreactivity (PSR sort gate)” value is listed as “low polyreactivity”.

As for “QVQLVESGGGLVQAGGSLRFSCAASGSTFKRYTMGWYRQAPGKERELVAAISTSSGSTYYADSVKGRFTISRDNAKNSVYLQMHSLKPEDTAVYYCAAVRLRQTYPKYNYWGQGTQVTVSS”, the “polyreactivity (PSR sort gate)” value is listed as “high polyreactivity”.

As to “QVQLVESGGGLVQAGGSLRFSCAASGSTFTTNVMGWYRQAPGKERELVAAISHRGGSTYYADSVKGRFTMSRDNAKNTVYLQMNSLKPEDTAVYYCAAPGWERYGYWGQGTQVTVSS”, the “polyreactivity (PSR sort gate)” value is listed as “low polyreactivity”.

As to “QVQLVESGGGLVQAGGSLRFSCAASGSTFYLYDMGWYRQAPGQERELVAVISWSGGSTSYADSVKGRFTISRDNAKNTIYLQMYSLKPEDTAVYYCTTDFYHWGQGTQVTVSS”, the “polyreactivity (PSR sort gate)” value is recorded as “low polyreactivity”.

Turning to “QVQLVESGGGLVQAGGSLRFSCAASGYIFSLNGRGWYRQAPGKERELVAAISSSGGRTYYADSVKGRFTISRDNAKNTVYLQMNSLKPEDTAVYYCAAEVYLSTYYQDMNYWGQGTQVTVSS”, the “polyreactivity (PSR sort gate)” value is on record as “high polyreactivity”.

Regarding “QVQLVESGGGLVQAGGSLRFSCAASRSIFFWYTMGWYRQAPGKYRELVATITGSGSSTTYADSVKGRFTISRDNAKNTVYLQMNSLKPEDTAVYYCAAADIIDHSFPYDYWGQGTQVTVSS”, the “polyreactivity (PSR sort gate)” value was “low polyreactivity”.

For the sequence “QVQLVESGGGLVQAGGSLRFSCAATGSIFVVNAMGWYRQAPGKERELVASITWSGDNTYYADSVKGRFTISRDNAKNTVYLQMNSLKPEDTAVYYCAATIWIAYRGWYSDYNYWGQGTQVTVSS”, the “polyreactivity (PSR sort gate)” value is “low polyreactivity”.

As for “QVQLVESGGGLVQAGGSLRFSCAAYGSISRYYAMGWYRLAPGKERELVAAISSNGGSTYYADSVKGRFTISRDNAKNTVYLQMNSLKPEDTAVDDCAAESDYFRYDYWGQGTQVTVSS”, the “polyreactivity (PSR sort gate)” value is “high polyreactivity”.

Consider “QVQLVESGGGLVQAGGSLRFSCPASGSIFPAYARGWYRQAPGKERELVAAITRGGSTDYADSVKGRFTISRDNAKNTVYLQMNSLKPEDTAVYYCAKRGYYYYHYVSGKPEDYWGQGTQVTVSS”, for which the “polyreactivity (PSR sort gate)” value is recorded as “low polyreactivity”.

As to “QVQLVESGGGLVQAGGSLRFSSPASGLTFGTYAMGWYRQAPGKERELVAAISTSGVRTYYADSVKGRFTISRDIAKNTVYLQMNSLKPEDTAVYYCAARYNRAYSRDYWGQGSQVTVSS”, the “polyreactivity (PSR sort gate)” value was “high polyreactivity”.

On to “QVQLVESGGGLVQAGGSLRIICAASGSIFVEYAMGWYRQAPGKERELVAAITYRGGSTYYADSVKGRFTISRDNAENTVYLQMNSLKPEDTAVYYCAAAVYYWGTSAYEYWGQGTQVTVSS”, for which the “polyreactivity (PSR sort gate)” value is given as “low polyreactivity”.

As to “QVQLVESGGGLVQAGGSLRIRCAASGRIFDTYAMGWYRQAPGKEREFVATISWDSASTYYADSVKGRFTISRDNAKNTVYLQMNSLKPEDTAVDYCAAGGSSSWAFNYWGQGTQLTVSS”, the “polyreactivity (PSR sort gate)” value is reported as “low polyreactivity”.

In the case of “QVQLVESGGGLVQAGGSLRISCAASASIFPGYAMGWYRQAPGKERELVAAISWSGGRTYYADSVKGRFTISRDNSKNTFYLQMNSLKPEDTAVYYCAARKYHLRSAYDYWGQGTQVTVSS”, the “polyreactivity (PSR sort gate)” value is recorded as “low polyreactivity”.

On to “QVQLVESGGGLVQAGGSLRISCAASGFIFRYNAMGWYRQAPGKERELVAAINSGDSTNYADSVKGRFTISRDNAKNTVYLQMNSLKPEDTAVYYYWGQGTQVTVSS”, for which the “polyreactivity (PSR sort gate)” value is “low polyreactivity”.

For “QVQLVESGGGLVQAGGSLRISCAASGFSCRQYAMGWYRQAPGKERELVAAISSSGGRTYYADSVKGRFTISRDNAKNTVYLQMNSLKPEDTAVYYCIARAWLRVEYGEGYWGQGTQVTVSS”, the “polyreactivity (PSR sort gate)” value was “high polyreactivity”.

Turning to “QVQLVESGGGLVQAGGSLRISCAASGFTFPIYAMGWYRKAPGKEREFVAAITASGDNTYYADSVKGRFTISRDNAKNTVYLQMNSLKPEDSAVYYCAADWFVDWWEYDYWGQGTQVTVSS”, the “polyreactivity (PSR sort gate)” value is given as “low polyreactivity”.

Consider “QVQLVESGGGLVQAGGSLRISCAASGFTFVAYAMGWYRKAPGKERELVAAISRRGGTTYYADSVKGRFTISRDNAKNTVYLQMNSLKPEDTAVYYCNARGFPGKFGYWGQGTQVTVSS”, for which the “polyreactivity (PSR sort gate)” value is reported as “high polyreactivity”.
